Laboratory results as given in patent US20190112342A1 (UNIVERSITY OF CHICAGO, published 2019).

B1: R domain of Coa Newman with C-terminal Strep tag (RST) (other)
chain: EARPRFNKPSETNAYNVTTHANGQVSYGARPTYKKPSETNAYNVTTHANGQVSYGARPTQNKPSKTNAYNVTTHGNGQVSYGARPTQNKPSKTNAYNVTTHANGQVSYGARPTYKKPSKTNAYNVTTHADGTATYG
notes: Encoded by plasmid pET15b-rST; also called repeat (R) domain; not shown: C-terminal Strep tag
B2: full-length strep-tagged Coa (CoaST) (other)
chain: IVTKDYSGKSQVNAGSKNGTLIDSRYLNSALYYLEDYIIYAIGLTNKYEYGDNIYKEAKDRLLEKVLREDQYLLERKKSQYEDYKQWYANYKKENPRTDLKMANFHKYNLEELSMKEYNELQDALKRALDDFHREVKDIKDKNSDLKTFNAAEEDKATKEVYDLVSEIDTLVVSYYGDKDYGEHAKELRAKLDLILGDTDNPHKITNERIKKEMIDDLNSIIDDFFMETKQNRPKSITKYNPTTHNYKTNSDNKPNFDKLVEETKKAVKEADDSWKKKTVKKYGETETKSPVVKEEKKVEEPQAPKVDNQQEVKTTAGKAEETTQPVAQPLVKIPQGTITGEIVKGPEYPTMENKTVQGEIVQGPDFLTMEQSGPSLSNNYTNPPLTNPILEGLEGSSSKLEIKPQGTESTLKGTQGESSDIEVKPQATETTEASQYGPRPQFNKTPKYVKYRDAGTGIREYNDGTFGYEARPRFNKPSETNAYNVTTHANGQVSYGARPTYKKPSETNAYNVTTHANGQVSYGARPTQNKPSKTNAYNVTTHGNGQVSYGARPTQNKPSKTNAYNVTTHANGQVSYGARPTYKKPSKTNAYNVTTHADGTATYGPRVTK
notes: Purified over Strep-Tactin-Sepharose; Used in the plasma pull-down and in the prothrombin and fibrinogen interference ELISAs; not shown: Strep tag

Biological target: T1, human prothrombin (human, UniProt P00734 44-622)
T1 construct: also called PT
Assay: affinity chromatography of human citrate-plasma, immunoblot with anti-prothrombin

Row | Binder | binding result
1 | B1 | no binding
2 | B2 | binds
